Results published in PMC11811267 (Journal of Separation Science, 2025).

Assays:
Type in all cases: in vitro ADME
[1] = Autosampler (re-injection) stability at 4°C for 24 h; conditions: autosampler (AS) 4°C, triplicate, 2D-LC-MS/MS
Protocol: (§1) The stability tests of all insulins were performed at two concentration levels (193 and 7752 pg/mL). One set of tests was performed with artificial plasma and the other set with artificial plasma containing 1% PIC. Each concentration level was tested in triplicate. These QC samples were quantified using an artificial plasma calibration curve without PIC, and the obtained concentrations were compared with the nominal concentrations of the low quality control (LQC) and high quality control (HQC), which were set to 100%. To evaluate the stability of insulins in artificial plasma containing 1% PIC, we considered the concentration measured at time zero as the baseline (100%). All subsequent changes in concentration were calculated relative to this initial measurement.
(§2) Short‐term stability, long‐term stability, and freeze‐thaw stability were evaluated in this study. LQC and HQC samples were stored at room temperature and in a refrigerator for 3, 6, and 24 h to assess short‐term (bench‐top) stability and at 4°C in the autosampler for 24 h to assess re‐injection stability.

[2] = Freeze-thaw stability in artificial plasma after storage at −80°C; conditions: stored at −80°C, triplicate, 2D-LC-MS/MS; for 24 h, change (%): cycle at 24 h; for 48 h, change (%): cycle at 48 h; for 72 h, change (%): cycle at 72 h
Protocol: as §1, §2

[3] = Long-term stability in artificial plasma at −20°C; conditions: triplicate, 2D-LC-MS/MS
Protocol: as §1, §2

[4] = Long-term stability in artificial plasma at −80°C; conditions: triplicate, 2D-LC-MS/MS
Protocol: as §1, §2

[5] = extracted samples from artificial plasma with 1% PIC, 193 pg/mL, % of concentration at time zero (=100%)
[6] = extracted samples from artificial plasma with 1% PIC, 7752 pg/mL, % of concentration at time zero (=100%)
[7] = extracted samples from artificial plasma without PIC, 193 pg/mL, % of nominal concentration (=100%)
[8] = extracted samples from artificial plasma without PIC, 7752 pg/mL, % of nominal concentration (=100%)
[9] = artificial plasma (BZ273) with 1% PIC, 193 pg/mL, % of concentration at time zero
[10] = artificial plasma (BZ273) with 1% PIC, 7752 pg/mL, % of concentration at time zero
[11] = artificial plasma (BZ273) without PIC, 193 pg/mL, % of nominal concentration
[12] = artificial plasma (BZ273) without PIC, 7752 pg/mL, % of nominal concentration
[13] = artificial plasma (BZ273) without PIC, 7752 pg/mL, % of nominal concentration, listed as Insulin aspart

With detemir the “24 h AS, change (%)” value [1, 5] was “<LLOQ”, the “24 h AS, change (%)” value [1, 6] was 66.0% and the “24 h AS, change (%)” value [1, 7] was 98.4%. The “24 h AS, change (%)” value [1, 8] was 93.7%, the “24 h, change (%)” value [2, 9] was 115.2% and the “24 h, change (%)” value [2, 10] was 375.0%. For the same substance, the “24 h, change (%)” value [2, 11] was 253.5%, the “24 h, change (%)” value [2, 12] was 168.5% and the “48 h, change (%)” value [2, 9] was 140.6%. For the same substance, the “48 h, change (%)” value [2, 10] was 344.2%, the “48 h, change (%)” value [2, 11] was 349.6% and the “48 h, change (%)” value [2, 12] was 195.4%. For the same substance, the “72 h, change (%)” value [2, 9] was 116.7%, the “72 h, change (%)” value [2, 10] was 285.9% and the “72 h, change (%)” value [2, 11] was 243.7%. For the same substance, the “72 h, change (%)” value [2, 12] was 161.5%, the “1 week, change (%)” value [3, 9] was “<LLOQ” and the “1 week, change (%)” value [3, 10] was 71.2%. For the same substance, the “1 week, change (%)” value [3, 11] was “<LLOQ”, the “1 week, change (%)” value [3, 12] was 27.0% and the “2 weeks, change (%)” value [3, 9] was “<LLOQ”. For the same substance, the “2 weeks, change (%)” value [3, 10] was 71.8%, the “2 weeks, change (%)” value [3, 11] was “<LLOQ” and the “2 weeks, change (%)” value [3, 12] was 24.8%. For the same substance, the “3 weeks, change (%)” value [3, 9] was “<LLOQ”, the “3 weeks, change (%)” value [3, 10] was 62.2% and the “3 weeks, change (%)” value [3, 11] was “<LLOQ”. The “3 weeks, change (%)” value [3, 12] was 21.9%, the “1 week, change (%)” value [4, 9] was “<LLOQ” and the “1 week, change (%)” value [4, 10] was 139.1%. For the same substance, the “1 week, change (%)” value [4, 11] was 64.2%, the “1 week, change (%)” value [4, 12] was 63.2% and the “2 weeks, change (%)” value [4, 9] was “<LLOQ”. For the same substance, the “2 weeks, change (%)” value [4, 10] was 173.5%, the “2 weeks, change (%)” value [4, 11] was 50.5% and the “2 weeks, change (%)” value [4, 12] was 54.7%. For the same substance, the “3 weeks, change (%)” value [4, 9] was “<LLOQ”, the “3 weeks, change (%)” value ([4]; artificial plasma (BZ273) with 1% PIC, 193 pg/mL, % of concentration at time zero, listed as Insulin detemir) was “< LLOQ” and the “3 weeks, change (%)” value [4, 10] was 154.5%. For the same substance, the “3 weeks, change (%)” value [4, 11] was 34.1% and the “3 weeks, change (%)” value [4, 12] was 49.4%.

With glulisine the “24 h AS, change (%)” value [1, 5] was 93.2%, the “24 h AS, change (%)” value [1, 7] was 97.6% and the “24 h AS, change (%)” value [1, 8] was 82.2%. The “24 h, change (%)” value [2, 9] was 79.0%, the “24 h, change (%)” value [2, 10] was 93.1% and the “24 h, change (%)” value [2, 11] was 99.0%. The “24 h, change (%)” value [2, 12] was 92.3%, the “48 h, change (%)” value [2, 9] was 106.9% and the “48 h, change (%)” value [2, 10] was 119.5%. The “48 h, change (%)” value [2, 12] was 95.2%, the “72 h, change (%)” value [2, 9] was 92.4% and the “72 h, change (%)” value [2, 10] was 95.0%. For the same substance, the “72 h, change (%)” value [2, 11] was 106.5%, the “72 h, change (%)” value [2, 12] was 81.1% and the “1 week, change (%)” value [3, 9] was 51.7%. The “1 week, change (%)” value [3, 10] was 55.6%, the “1 week, change (%)” value [3, 11] was 99.7% and the “1 week, change (%)” value [3, 12] was 86.2%. For the same substance, the “2 weeks, change (%)” value [3, 9] was 36.7%, the “2 weeks, change (%)” value [3, 10] was 143.0% and the “2 weeks, change (%)” value [3, 12] was 84.0%. For the same substance, the “3 weeks, change (%)” value [3, 9] was 29.2%, the “3 weeks, change (%)” value [3, 10] was 31.5% and the “3 weeks, change (%)” value [3, 11] was 84.8%. The “3 weeks, change (%)” value [3, 12] was 79.8%, the “1 week, change (%)” value [4, 10] was 88.1% and the “1 week, change (%)” value [4, 11] was 103.5%. The “1 week, change (%)” value [4, 12] was 84.5%, the “2 weeks, change (%)” value [4, 10] was 117.9% and the “2 weeks, change (%)” value [4, 11] was 102.7%. For the same substance, the “2 weeks, change (%)” value [4, 12] was 83.7%, the “3 weeks, change (%)” value [4, 9] was 79.1% and the “3 weeks, change (%)” value [4, 10] was 95.2%. For the same substance, the “3 weeks, change (%)” value [4, 11] was 98.8% and the “3 weeks, change (%)” value [4, 12] was 75.6%.

In the case of insulin aspart, the “24 h AS, change (%)” value [1, 6] is reported as 125.7%, the “24 h AS, change (%)” value [1, 7] is reported as 92.6% and the “24 h, change (%)” value [2, 9] is reported as 111.6%. The “24 h, change (%)” value [2, 10] was 117.4%, the “24 h, change (%)” value [2, 11] was 90.4% and the “24 h, change (%)” value [2, 12] was 100.00%. For the same substance, the “24 h, change (%)” value [2, 13] was 100.0%, the “48 h, change (%)” value [2, 9] was 111.6% and the “48 h, change (%)” value [2, 10] was 115.5%. For the same substance, the “48 h, change (%)” value [2, 11] was 98.1%, the “72 h, change (%)” value [2, 9] was 93.7% and the “72 h, change (%)” value [2, 10] was 99.8%. For the same substance, the “72 h, change (%)” value [2, 11] was 85.7%, the “72 h, change (%)” value [2, 12] was 92.10% and the “72 h, change (%)” value [2, 13] was 92.1%. For the same substance, the “1 week, change (%)” value [3, 9] was 70.7%, the “1 week, change (%)” value [3, 10] was 72.2% and the “1 week, change (%)” value [3, 11] was 105.6%. For the same substance, the “1 week, change (%)” value [3, 12] was 104.3%, the “2 weeks, change (%)” value [3, 9] was 58.4% and the “2 weeks, change (%)” value [3, 10] was 62.5%. The “2 weeks, change (%)” value [3, 11] was 107.3%, the “2 weeks, change (%)” value [3, 12] was 100.2% and the “3 weeks, change (%)” value [3, 9] was 39.5%. For the same substance, the “3 weeks, change (%)” value [3, 10] was 35.8%, the “3 weeks, change (%)” value [3, 11] was 101.4% and the “3 weeks, change (%)” value [3, 12] was 95.2%. For the same substance, the “1 week, change (%)” value [4, 9] was 116.5%, the “1 week, change (%)” value [4, 10] was 123.4% and the “1 week, change (%)” value [4, 11] was 106.0%. For the same substance, the “1 week, change (%)” value [4, 12] was 104.7%, the “2 weeks, change (%)” value [4, 9] was 99.6% and the “2 weeks, change (%)” value [4, 10] was 106.6%. For the same substance, the “2 weeks, change (%)” value [4, 12] was 97.2%, the “3 weeks, change (%)” value [4, 9] was 93.4% and the “3 weeks, change (%)” value [4, 10] was 108.9%. The “3 weeks, change (%)” value [4, 11] was 97.8% and the “3 weeks, change (%)” value [4, 12] was 92.8%.
